In patent publication US20090048324:
Where a chain is given by its changes, count along the chain named. Names may count otherwise.

How the values were obtained:
[1] = target: T1, wild type human porphobilinogen synthase (PBGS), parent construct N59/C162A
T1 chain: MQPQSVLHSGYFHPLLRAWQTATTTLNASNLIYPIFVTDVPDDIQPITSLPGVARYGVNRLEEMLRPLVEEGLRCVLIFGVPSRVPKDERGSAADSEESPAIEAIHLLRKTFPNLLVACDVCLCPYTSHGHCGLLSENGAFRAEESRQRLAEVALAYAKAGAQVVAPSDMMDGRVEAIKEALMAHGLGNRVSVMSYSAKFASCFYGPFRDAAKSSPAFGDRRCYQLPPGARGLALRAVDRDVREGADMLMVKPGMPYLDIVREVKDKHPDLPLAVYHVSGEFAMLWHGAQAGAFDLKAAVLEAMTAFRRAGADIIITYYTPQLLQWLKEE

B1: pea (Pisum sativum) porphobilinogen synthase (protein)
chain: SLPIQRRPRRNRRSPALRSAFQETTLSPANFVYPLFIHEGEEDTPIGAMPGCYRLGWRHGLLEEVAKARDVGVNSVVLFPKIPDALKTPTGDEAYNEDGLVPRSIRLLKDKYPDLIIYTDVALDPYSSDGHDGIVREDGVIMNDETVHQLCKQAVAQARAGADVVSPSDMMDGRVGAMRVALDAEGFQHVSIMSYTAKYASSFYGPFREALDSNPRFGDKKTYQMNPANYREALTEMREDESEGADILLVKPGLPYLDIIRLLRDNSPLPIAAYQVSGEYSMIKAGGALKMIDEEKVMMESLLCLRRAGADIILTYFALQAARTLCGEKR
With B1 the “K(0.5) of the protein concentration dependent specific activity” value (P30124) was “K(0.5) of 0.064 µM PBGS”, the “K(0.5) of the protein concentration dependent specific activity in the presence of 5 µM morphlock-1” value (P30124) was “more than doubles the K(0.5) to 0.134 µM pea PBGS” and the “protein concentration giving half maximal specific activity” value (P30124) was “half maximal activity at 3.5 µg/ml PBGS”. For the same protein, the “protein concentration giving half maximal specific activity after 30 minutes with 30 µM rosmarinic acid” value (P30124) was “half maximal activity at 13.5 µg/ml PBGS”, the “specific activity as a function of pea PBGS concentration, DMSO control (filled circles)” value (P30124) was “rises from near 10 at about 0.008 µM to about 250 at about 0.8 µM; fitted line levels at about 275 µmol h-1 mg-1 toward 10 µM (log axis); the half-maximal K(0.5) is printed in the text” and the “specific activity as a function of pea PBGS concentration, with morphlock-1 (open circles)” value (P30124) was “curve shifted to the right of the DMSO curve: near 0 at about 0.008 µM, about 240 at about 0.8 µM; fitted line reaches about 290 µmol h-1 mg-1 at 10 µM (log axis); the half-maximal K(0.5) is printed in the text”. For the same protein, the “specific activity as a function of pea PBGS subunit concentration” value (P30124) was “rises from about 5 at 0.001 µM to a plateau of about 220 at 0.7-1 µM on a log axis”.

B2: human PBGS variant F12L (protein)
chain: T1 chain with F12L
B2 was tested, and the “specific activity over time after addition of ALA (filled triangles, Pool I)” value [1] was “rises from about 1 at 0 min (fit) and about 2.5 at 15 min to a plateau of about 7.5 µmole h-1 mg-1 by 200-270 min” and the “specific activity over time after addition of ALA (filled triangles, Pool II)” value [1] was “rises from about 18.3 at about 2 min to a plateau of about 22.2-22.4 µmole h-1 mg-1 from 30-45 min up to 150 min”.
